Data published in publication PMC4694995.

Target: programmed cell death 1 (PD1), endogenous in mouse CD8+ T cells (mouse (endogenous in OT-1 and C57BL/6 CD8+ T cells)) (UniProt Q02242)
Experiment: co-IP; Lag3-/- or Pdcd1-/- mouse CD8+ T cells retrovirally transduced with LAG3 or PD1 constructs (pMIG-II), sorted, rested in IL2, restimulated with IE9mp1 for 5 min or treated with pervanadate for 5 min; antibody-conjugated Dynal beads; Western blot, densitometry normalised to input

Chain of programmed cell death 1 (PD1), endogenous in mouse CD8+ T cells (mouse (endogenous in OT-1 and C57BL/6 CD8+ T cells)) (Q02242 25-288): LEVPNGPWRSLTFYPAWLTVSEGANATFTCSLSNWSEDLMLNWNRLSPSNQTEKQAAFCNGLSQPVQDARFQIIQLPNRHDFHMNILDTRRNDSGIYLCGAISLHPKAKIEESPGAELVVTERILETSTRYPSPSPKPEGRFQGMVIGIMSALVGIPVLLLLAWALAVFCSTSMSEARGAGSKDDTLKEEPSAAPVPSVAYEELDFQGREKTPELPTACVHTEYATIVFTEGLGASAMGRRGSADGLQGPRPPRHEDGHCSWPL
Chain of Src-homology-2 domain-containing phosphatase SHP1, endogenous in mouse CD8+ T cells, P29351 1-595 (enzyme; other documents disagree on this pair) (P29351 whole entry): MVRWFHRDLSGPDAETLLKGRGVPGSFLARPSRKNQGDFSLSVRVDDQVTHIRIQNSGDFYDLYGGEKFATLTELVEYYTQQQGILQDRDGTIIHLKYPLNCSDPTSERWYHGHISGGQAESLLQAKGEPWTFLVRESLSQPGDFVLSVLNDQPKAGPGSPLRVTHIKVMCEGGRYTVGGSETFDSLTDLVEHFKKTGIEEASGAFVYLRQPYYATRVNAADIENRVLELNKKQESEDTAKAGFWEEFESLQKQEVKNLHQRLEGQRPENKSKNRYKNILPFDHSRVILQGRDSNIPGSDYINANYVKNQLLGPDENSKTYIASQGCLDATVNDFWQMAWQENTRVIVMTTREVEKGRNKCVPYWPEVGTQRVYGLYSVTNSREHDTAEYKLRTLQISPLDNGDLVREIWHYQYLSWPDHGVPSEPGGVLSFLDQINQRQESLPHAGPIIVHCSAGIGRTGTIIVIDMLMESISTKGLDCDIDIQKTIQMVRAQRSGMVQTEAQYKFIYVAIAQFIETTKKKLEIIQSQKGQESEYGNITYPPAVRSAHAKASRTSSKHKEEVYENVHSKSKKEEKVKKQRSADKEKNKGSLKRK

Substance | amount pulled down by anti-PD1 antibody in cells with pΔCY, against cells with pLAG3 | amount pulled down by anti-PD1 antibody, against pLAG3
Src-homology-2 domain-containing phosphatase SHP1, endogenous in mouse CD8+ T cells, P29351 1-595 (enzyme; other documents disagree on this pair) | 20 % less | –
LAG3 lacking the cytoplasmic domain, expressed from pMIG-LAG3ΔCY in Lag3-/- CD8+ T cells (domain or fragment) | – | 30 % lower
